Target: T1, NT-L +278 VP16 (R23570V) (Xanthomonas sp. (engineered), UniProt P14727 SEQ:1-1013)
T1 chain: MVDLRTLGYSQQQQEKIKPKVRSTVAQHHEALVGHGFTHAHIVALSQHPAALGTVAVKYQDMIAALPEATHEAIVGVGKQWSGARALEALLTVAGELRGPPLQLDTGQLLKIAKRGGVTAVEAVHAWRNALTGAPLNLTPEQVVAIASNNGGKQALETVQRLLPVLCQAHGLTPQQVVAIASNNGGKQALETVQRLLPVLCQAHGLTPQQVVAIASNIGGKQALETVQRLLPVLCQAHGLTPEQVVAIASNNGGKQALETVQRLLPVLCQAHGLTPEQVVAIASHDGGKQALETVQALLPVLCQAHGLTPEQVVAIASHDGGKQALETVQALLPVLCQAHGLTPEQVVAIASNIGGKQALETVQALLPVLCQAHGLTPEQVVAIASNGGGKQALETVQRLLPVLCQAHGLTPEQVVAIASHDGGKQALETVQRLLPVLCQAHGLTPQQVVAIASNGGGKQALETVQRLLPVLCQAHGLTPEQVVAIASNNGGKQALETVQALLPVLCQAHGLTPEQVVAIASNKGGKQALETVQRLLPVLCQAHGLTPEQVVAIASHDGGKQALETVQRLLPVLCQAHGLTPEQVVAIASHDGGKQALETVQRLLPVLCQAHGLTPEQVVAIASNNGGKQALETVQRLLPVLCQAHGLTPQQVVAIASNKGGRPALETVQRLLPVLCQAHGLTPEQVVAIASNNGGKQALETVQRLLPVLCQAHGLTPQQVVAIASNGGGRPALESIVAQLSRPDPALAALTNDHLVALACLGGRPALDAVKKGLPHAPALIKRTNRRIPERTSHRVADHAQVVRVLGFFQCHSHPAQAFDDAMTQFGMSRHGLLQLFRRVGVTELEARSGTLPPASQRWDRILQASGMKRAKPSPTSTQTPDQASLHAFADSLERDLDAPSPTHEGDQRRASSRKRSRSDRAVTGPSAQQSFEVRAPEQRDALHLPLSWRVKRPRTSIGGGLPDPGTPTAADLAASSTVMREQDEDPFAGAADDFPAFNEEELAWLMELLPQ
Test: cell_activity; luciferase reporter with 2 sites
Settings: tags: VP16

B1: NT-L target (NTF3 promoter) (dsDNA)
DNA 1: GGAGCCATCTGGCCGGGT
DNA 2: ACCCGGCCAGATGGCTCC
For B1, the activity was 74.5 fold activation.
